Key:
[1] = target: EPHA2 fused to a fluorescent protein for FRET (EPHA2-mRuby3; EPHA2-mClover3) (human) (UniProt P29317); test: FRET or BRET
[2] = target: ROBO1 fused to a fluorescent protein for FRET (ROBO1-mClover3) (human) (UniProt Q9Y6N7); test: FRET or BRET
Chain of UniProt Q9Y6N7 (Q9Y6N7 26-1651): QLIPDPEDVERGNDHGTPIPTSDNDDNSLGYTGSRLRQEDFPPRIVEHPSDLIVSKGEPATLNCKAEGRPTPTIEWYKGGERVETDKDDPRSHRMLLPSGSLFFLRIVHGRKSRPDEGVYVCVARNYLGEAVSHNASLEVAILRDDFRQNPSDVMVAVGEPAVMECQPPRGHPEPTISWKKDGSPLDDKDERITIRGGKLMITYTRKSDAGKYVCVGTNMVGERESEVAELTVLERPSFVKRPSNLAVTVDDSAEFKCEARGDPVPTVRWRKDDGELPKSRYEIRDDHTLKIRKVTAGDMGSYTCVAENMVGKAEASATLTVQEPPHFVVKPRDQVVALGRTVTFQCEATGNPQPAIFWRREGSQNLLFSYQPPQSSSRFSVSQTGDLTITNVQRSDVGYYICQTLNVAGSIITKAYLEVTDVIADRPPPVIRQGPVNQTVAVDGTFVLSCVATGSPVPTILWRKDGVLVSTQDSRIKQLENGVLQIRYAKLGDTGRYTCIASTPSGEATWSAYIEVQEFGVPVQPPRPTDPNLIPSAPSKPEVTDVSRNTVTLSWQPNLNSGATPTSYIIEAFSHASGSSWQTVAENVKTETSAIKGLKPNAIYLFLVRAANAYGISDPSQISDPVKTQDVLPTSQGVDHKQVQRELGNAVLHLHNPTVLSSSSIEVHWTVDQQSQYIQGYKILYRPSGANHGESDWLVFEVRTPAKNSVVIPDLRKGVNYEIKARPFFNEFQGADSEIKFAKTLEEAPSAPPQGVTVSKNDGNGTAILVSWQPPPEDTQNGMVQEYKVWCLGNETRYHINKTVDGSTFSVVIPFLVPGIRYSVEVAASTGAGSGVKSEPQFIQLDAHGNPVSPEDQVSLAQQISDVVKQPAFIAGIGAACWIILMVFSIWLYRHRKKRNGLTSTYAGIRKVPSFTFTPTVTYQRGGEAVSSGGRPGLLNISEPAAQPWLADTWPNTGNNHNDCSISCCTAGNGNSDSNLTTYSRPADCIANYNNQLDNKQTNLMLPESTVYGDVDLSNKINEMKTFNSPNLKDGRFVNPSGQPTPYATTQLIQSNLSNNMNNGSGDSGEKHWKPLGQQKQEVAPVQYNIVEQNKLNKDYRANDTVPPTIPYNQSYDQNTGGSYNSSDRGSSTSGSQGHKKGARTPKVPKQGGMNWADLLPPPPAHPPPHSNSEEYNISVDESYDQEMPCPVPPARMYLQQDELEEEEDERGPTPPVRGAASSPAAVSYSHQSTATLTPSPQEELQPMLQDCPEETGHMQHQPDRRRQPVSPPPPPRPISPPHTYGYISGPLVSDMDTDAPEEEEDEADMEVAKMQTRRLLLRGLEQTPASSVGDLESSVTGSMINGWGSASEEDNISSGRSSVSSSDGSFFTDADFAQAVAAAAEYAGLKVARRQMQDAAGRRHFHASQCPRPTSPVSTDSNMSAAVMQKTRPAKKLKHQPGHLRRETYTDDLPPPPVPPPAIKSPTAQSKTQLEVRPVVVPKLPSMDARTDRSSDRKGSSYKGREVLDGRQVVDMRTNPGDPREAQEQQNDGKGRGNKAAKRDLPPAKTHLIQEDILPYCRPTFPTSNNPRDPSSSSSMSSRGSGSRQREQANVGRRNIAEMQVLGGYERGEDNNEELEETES

- N-FRET [1]: 0.347
- N-FRET [2]: 0.234
Substance: EPHA2 fused to a fluorescent protein for FRET (EPHA2-mRuby3; EPHA2-mClover3) (from UniProt P29317 24-976) (receptor)

Reference: paper doi:10.1101/2020.04.09.034405
